# In US20040023887A1 (published 2004):
# No end group written: not given here.
# B1: S423 (peptide)
# peptide 1: ESFYDWFERQLGK
# peptide 2: ACAWPTYWNCG
# modifications: not fully specified (bridges); cysteine pairing not given here; also: C-terminus of chain 2 linked to Lys13 of chain 1, bond at chain A 13 to a chain's C-terminus
# B2: S440 (peptide)
# peptide 1: ESFYDWFERQLGGGGK
# peptide 2: EWAWVQCEVYGRGCPS
# modifications: not fully specified (bridges); cysteine pairing not given here; also: C-terminus of chain 2 linked to Lys16 of chain 1, bond at chain A 16 to a chain's C-terminus
# B3: S433 (peptide)
# peptide 1: ESFYDWFERQLGGGGK
# peptide 2: WLDQEWAWVQ
# modifications: also: C-terminus of chain 2 linked to Lys16 of chain 1, bond at chain A 16 to a chain's C-terminus
# B4: S432 (peptide)
# peptide 1: ESFYDWFERQLGGGGK
# peptide 2: CEVYGRGCPS
# modifications: not fully specified (bridges); cysteine pairing not given here; also: C-terminus of chain 2 linked to Lys16 of chain 1, bond at chain A 16 to a chain's C-terminus
# B5: S437 (peptide)
# peptide 1: ESFYDWFERQLGGGGK
# peptide 2: LDQEWAWVQCEVYGRGCPS
# modifications: not fully specified (bridges); cysteine pairing not given here; also: C-terminus of chain 2 linked to Lys16 of chain 1, bond at chain A 16 to a chain's C-terminus
# B6: S438 (peptide)
# peptide 1: ESFYDWFERQLGGGGK
# peptide 2: DQEWAWVQCEVYGRGCPS
# modifications: not fully specified (bridges); cysteine pairing not given here; also: C-terminus of chain 2 linked to Lys16 of chain 1, bond at chain A 16 to a chain's C-terminus
# B7: S439 (peptide)
# peptide 1: ESFYDWFERQLGGGGK
# peptide 2: QEWAWVQCEVYGRGCPS
# modifications: not fully specified (bridges); cysteine pairing not given here; also: C-terminus of chain 2 linked to Lys16 of chain 1, bond at chain A 16 to a chain's C-terminus
# B8: 20E2A-4-G11-IGFR (peptide)
# peptide: MNVFVSFYDAIDQLVCQRIGC
# notes: library tags and phage coat protein not included
# B9: 20E2A-3-A4-IGFR (peptide)
# peptide: AGSVTSFYDAMEQLVATGTSA
# notes: as for B8
# B10: R20β-4-E8-IR (peptide)
# peptide: VRGFQGGTVWPGYEWLRNAA
# notes: tags and coat protein not included; Formula 10 (Group 6) clone
# B11: B6Hα-3-E5-IR (peptide)
# peptide: RCGDEEGWQENRRDDPFYHKLSELFGGC
# notes: as for B8
# B12: B6Hα-3-F7-IR (peptide)
# peptide: SRVAATKEKRPSDDPFYHKLSELLQGS
# notes: as for B8
# B13: B6Hα-1-B3-IR (peptide)
# peptide: GCITAENGAGDPFYHKLSELGGCS
# notes: as for B8
# B14: 20E2A-3-A3-IGFR (peptide)
# peptide: GHYFGSFYDAIDQLVAGMLPG
# notes: as for B8
# B15: B6Hα-2-D8-IR (peptide)
# peptide: SSETAKMVTGTRDDPFYHKLSELVQGS
# notes: as for B8
# B16: B6Hα-3-E6-IR (peptide)
# peptide: CGAKMTGTPNDPFYHKLSELLQRG
# notes: as for B8
# B17: 20E2Bβ-3-C7-IR (peptide)
# peptide: QSGSGDFYDWLSRLIRGNGDG
# notes: as for B8
# B18: 40F-4-D1-IGFR (peptide)
# peptide: LSCLAYSRHGIWRPSTDLGLGRSVGEGSVSTRWRGYDWFE
# notes: as for B10
# B19: B6Hα-3-F1-IR (peptide)
# peptide: CSMAAVAEAGDDDDPFYHKLSELCQGS
# notes: as for B8
# B20: 40F-4-B1-IGFR (peptide)
# peptide: GLDHSDAVGVHLGFAWPAQARGRWEAGGLEDTWAGYDWL
# notes: as for B10
# Target: T1, soluble IGF-1R (recombinant human IGF-1R extracellular domain, R&D Systems Cat. # 391-GR/CF) (human, UniProt P08069 31-935)
# T1 construct: extracellular domain; Bought protein; coated on plates (phage ELISA, TRF) or Eu-labelled (TR-FRET); also called sIGF-1R; rhIGF-1R
# Experiment: phage ELISA
row,Binder,ratio over background [ratio]
1,LRRQAPVEENFYDWFVRQVSGDRVGG (on phage) [H2CA-3-D7-IGFR],3
2,NYRRQVFNGNFYDWFDRQVFSLVTPG (on phage) [H2CA-3-D8-IGFR],7.2
3,RCGRELYHSTFYDWFDRQVAGRTCPS (on phage) [H2CA-1-A7-IGFR],2.2
4,APDPSDFQEIFYDWFVRQVSRMPGGG (on phage) [H2CA-1-A3-IGFR],3.8
5,RAGSSDFHEDFYEWFVRQVSLSLKGK (on phage) [H2CA-2-B9-IGFR],7
6,CCLLCRFQQNFYDWFVCQGISRLRPL (on phage) [H2CA-2-B4-IGFR],4.1
7,GFREGNFYEWFQAQVT (on phage) [E4Dα-4-H2-IR],33.9
8,GGTKAVAKVGTRDDPFYHKLSELLQGS (on phage) [B6Hα-4-G8-IR],6.1
9,QAVQPGFHEEFYDWFVRQVSTGVGGG (on phage) [H2CA-4-H4-IGFR],4.1
10,SSIGGGFHENFYDWFSRQLSQSPPLK (on phage) [H2CA-4-F7-IGFR],3.2
11,TLDGGSFEEQFYDWFVRQLSYRTNPD (on phage) [H2CA-4-G11-IGFR],9.5
12,QSPVGSSHEDFYDWFFRQVAQSGAHQ (on phage) [H2CA-3-D6-IGFR],9
13,GIISQSCPESFYDWFAGQVSDPWWCW (on phage) [H2CA-4-G9-IGFR],9.5
14,GAPVDQLHEDFYDWFVRQVSQAATG (on phage) [H2CA-2-B2-IGFR],3.4
15,FYVQQWGHENFYDWFDRQVSQSGGAG (on phage) [H2CA-4-F1-IGFR],3.5
16,PPLASDLDVQFYGWFVQQVSPPGRGG (on phage) [H2CA-2-B3-IGFR],3.8
17,SSCDGAGHESFYEWFVRQVSGCRSV (on phage) [H2CA-3-C6-IGFR],5.6
18,SRAKVEAEMPDSGDPFYHKLSELLASG (on phage) [B6Hα-1-A3-IR],2.6
19,AETSVQVGWIRLQSVWPGEHWNTVDPFYHKLSELLRGSGA (on phage) [B6L-4-D7-IR],4.8

# Target: T2, soluble human insulin receptor-immunoglobulin heavy chain chimera (human, UniProt P06213 28-956, limits assumed)
# T2 construct: extracellular domain; also called sIR-Fc; IR (prepared according to Bass et al., 1996); not shown: immunoglobulin heavy chain constant domains (Bass et al., 1996)
# Experiment: phage ELISA
row,Binder,ratio over background [ratio]
1,LRRQAPVEENFYDWFVRQVSGDRVGG (on phage) [H2CA-3-D7-IGFR],0.8
2,NYRRQVFNGNFYDWFDRQVFSLVTPG (on phage) [H2CA-3-D8-IGFR],1.8
3,RCGRELYHSTFYDWFDRQVAGRTCPS (on phage) [H2CA-1-A7-IGFR],0.6
4,APDPSDFQEIFYDWFVRQVSRMPGGG (on phage) [H2CA-1-A3-IGFR],0.8
5,RAGSSDFHEDFYEWFVRQVSLSLKGK (on phage) [H2CA-2-B9-IGFR],1.7
6,CCLLCRFQQNFYDWFVCQGISRLRPL (on phage) [H2CA-2-B4-IGFR],1.1
7,GFREGNFYEWFQAQVT (on phage) [E4Dα-4-H2-IR],8.2
8,GGTKAVAKVGTRDDPFYHKLSELLQGS (on phage) [B6Hα-4-G8-IR],1.7
9,QAVQPGFHEEFYDWFVRQVSTGVGGG (on phage) [H2CA-4-H4-IGFR],1
10,SSIGGGFHENFYDWFSRQLSQSPPLK (on phage) [H2CA-4-F7-IGFR],0.8
11,TLDGGSFEEQFYDWFVRQLSYRTNPD (on phage) [H2CA-4-G11-IGFR],2.5
12,QSPVGSSHEDFYDWFFRQVAQSGAHQ (on phage) [H2CA-3-D6-IGFR],2.2
13,GIISQSCPESFYDWFAGQVSDPWWCW (on phage) [H2CA-4-G9-IGFR],0.6
14,GAPVDQLHEDFYDWFVRQVSQAATG (on phage) [H2CA-2-B2-IGFR],1
15,FYVQQWGHENFYDWFDRQVSQSGGAG (on phage) [H2CA-4-F1-IGFR],0.9
16,PPLASDLDVQFYGWFVQQVSPPGRGG (on phage) [H2CA-2-B3-IGFR],1
17,SSCDGAGHESFYEWFVRQVSGCRSV (on phage) [H2CA-3-C6-IGFR],1.2
18,SRAKVEAEMPDSGDPFYHKLSELLASG (on phage) [B6Hα-1-A3-IR],0.8
19,AETSVQVGWIRLQSVWPGEHWNTVDPFYHKLSELLRGSGA (on phage) [B6L-4-D7-IR],1.4

# Target: T3, human insulin receptor (HIR) (human, UniProt P06213-2 28-1370, limits assumed)
# T3 construct: Also used for the WGA-purified recombinant human insulin receptor of the kinase assay
# Experiment: 125I-insulin competition on purified HIR
row,Binder,Kd [nM]
1,B1,62
2,B2,99
3,B3,110
4,B4,180
5,B5,0.69
6,B6,30
7,B7,46

# Target: T4, Soluble IGF-1R (R&D Systems, Cat. # 391-GR/CF) (human, UniProt P08069 31-935)
# T4 construct: extracellular domain; the precursor is cleaved into alpha and beta subunits; also called sIGF-1R
# Experiment: phage ELISA, receptor coated on plate; A405 over non-fat milk
row,Binder,ratio over background (IGF-1R) [fold over background]
1,B8,3.3
2,B9,2.5
3,B10,34.9
4,B11,2.9
5,B12,3.1
6,B13,3.2
7,B14,3
8,B15,3
9,B16,2.3
10,B17,3.1
11,B18,4.6
12,B19,2.4
13,B20,3

# Target: T5, Insulin receptor prepared according to Bass et al., 1996 (soluble IR-immunoglobulin chimera) (human, UniProt P06213 28-956)
# T5 construct: extracellular domain; also called sIR-Fc; soluble IR (Bass construct); not shown: immunoglobulin constant domains replacing the transmembrane and intracellular domains
# Experiment: as above
row,Binder,ratio over background (IR) [fold over background]
1,B8,1.3
2,B10,3.6
3,B11,1
4,B12,1
5,B13,1.1
6,B14,1.5
7,B15,1
8,B16,1.2
9,B17,1.5
10,B18,0.3
11,B19,1.3
12,B20,0.2
